Measurements as given in publication PMC11667226 (Theranostics, 2025).
Where two headings read alike, the source gives them in different places. Non-standard residues stand in square brackets, D forms with d. Residues, ends and D or L forms follow the SMILES beside them. *: point of attachment. X1 = CC1(C)C(=CC=CC=CC=CC2=[N+](CCCCCC(=O)*)c3ccc4ccccc4c3C2(C)C)N(CCCCS(=O)(=O)[O-])c2ccc3ccccc3c21; Cha = N[C@@H](CC1CCCCC1)C(=O)O

Procedure: ECGs were taken at baseline, 1 hr ± 15 min, and 44 hrs ± 6 h post-injection. Blood samples (including lever and kidney parameters) were sampled at baseline, 12 hrs ± 4 hrs, and 44 hrs ± 6 hrs post-injection. All laboratory analyses were performed by the Department of Biochemistry at Rigshospitalet. AE assessments were graded according to the National Cancer Institute “Common Terminology Criteria for Adverse Events (CTCAE)” version 5.0. There was no data monitoring committee in this trial.
[1] = FG001 36 mg i.v., n = 4, CTCAE v5.0

CC(C)C[C@H](NC(=O)[C@H](Cc1ccc(O)cc1)NC(=O)[C@@H](CCCNC(=N)N)NC(=O)[C@@H](CO)NC(=O)[C@H](Cc1ccccc1)NC(=O)[C@H](CC1CCCCC1)NC(=O)[C@H](CC(=O)O)NC(=O)[C@H](CCC(=O)O)NC(=O)[C@H](CCC(=O)O)NC(=O)CCCCC[N+]1=C(C=CC=CC=CC=C2N(CCCCS(=O)(=O)[O-])c3ccc4ccccc4c3C2(C)C)C(C)(C)c2c1ccc1ccccc21)C(=O)N[C@@H](Cc1c[nH]c2ccccc12)C(=O)N[C@@H](CO)C(=O)O [FG001, ICG-Glu-Glu-AE105] (X1-EED[Cha]F[dS][dR]YLWS-OH; N-terminus and C-terminus assumed)
TEAE Blood bilirubin increased: No. events (FG001 36 mg i.v., N=4): 4 | TEAE Blood bilirubin increased: No. subjects (%) (FG001 36 mg i.v., N=4): 4 (100.0%) | TEAE Blood creatinine increased: No. events (FG001 36 mg i.v., N=4): 1 | TEAE Blood creatinine increased: No. subjects (%) (FG001 36 mg i.v., N=4): 1 (25.0%) | TEAE Dysgeusia: No. events (FG001 36 mg i.v., N=4): 0 | TEAE Dysgeusia: No. subjects (%) (FG001 36 mg i.v., N=4): 0 (0.0%) | TEAE GGT increased: No. events (FG001 36 mg i.v., N=4): 1 | TEAE GGT increased: No. subjects (%) (FG001 36 mg i.v., N=4): 1 (25.0%) | TEAE Hypalbuminaemia: No. events (FG001 36 mg i.v., N=4): 1 | TEAE Hypalbuminaemia: No. subjects (%) (FG001 36 mg i.v., N=4): 1 (25.0%) | TEAE Hyperglycaemia: No. events (FG001 36 mg i.v., N=4): 1 | TEAE Hyperglycaemia: No. subjects (%) (FG001 36 mg i.v., N=4): 1 (25.0%) | TEAE Hypertension: No. events (FG001 36 mg i.v., N=4): 1 | TEAE Hypertension: No. subjects (%) (FG001 36 mg i.v., N=4): 1 (25.0%) | TEAE Hyponatraemia: No. events (FG001 36 mg i.v., N=4): 0 | TEAE Hyponatraemia: No. subjects (%) (FG001 36 mg i.v., N=4): 0 (0.0%) | TEAE Hypotension: No. events (FG001 36 mg i.v., N=4): 0 | TEAE Hypotension: No. subjects (%) (FG001 36 mg i.v., N=4): 0 (0.0%) | TEAE Hypothermia: No. events (FG001 36 mg i.v., N=4): 2 | TEAE Hypothermia: No. subjects (%) (FG001 36 mg i.v., N=4): 1 (25.0%) | TEAE Pneumonia: No. events (FG001 36 mg i.v., N=4): 0 | TEAE Pneumonia: No. subjects (%) (FG001 36 mg i.v., N=4): 0 (0.0%) | TEAE SOC General disorders and administration site conditions: No. events (FG001 36 mg i.v., N=4): 2 | TEAE SOC General disorders and administration site conditions: No. subjects (%) (FG001 36 mg i.v., N=4): 1 (25.0%) | TEAE SOC Infections and infestations: No. events (FG001 36 mg i.v., N=4): 0 | TEAE SOC Infections and infestations: No. subjects (%) (FG001 36 mg i.v., N=4): 0 (0.0%) | TEAE SOC Investigations: No. events (FG001 36 mg i.v., N=4): 9 | TEAE SOC Investigations: No. subjects (%) (FG001 36 mg i.v., N=4): 4 (100.0%) | TEAE SOC Metabolism and nutrition disorders: No. events (FG001 36 mg i.v., N=4): 2 | TEAE SOC Metabolism and nutrition disorders: No. subjects (%) (FG001 36 mg i.v., N=4): 1 (25.0%) | TEAE SOC Nervous system disorders: No. events (FG001 36 mg i.v., N=4): 0 | TEAE SOC Nervous system disorders: No. subjects (%) (FG001 36 mg i.v., N=4): 0 (0.0%) | TEAE SOC Vascular disorders: No. events (FG001 36 mg i.v., N=4): 1 | TEAE SOC Vascular disorders: No. subjects (%) (FG001 36 mg i.v., N=4): 1 (25.0%) | FG001 related TEAEs: No. events (FG001 36 mg i.v., n = 4): 0 | FG001 related TEAEs: No. patients (%) (FG001 36 mg i.v., n = 4): 0 (0%) | SAEs: No. events (FG001 36 mg i.v., n = 4): 0 | SAEs: No. patients (%) (FG001 36 mg i.v., n = 4): 0 (0%) | TEAE: No. events (FG001 36 mg i.v., n = 4): 14 | TEAE: No. patients (%) (FG001 36 mg i.v., n = 4): 4 (100%) | TEAE Mild (Grade 1): No. events [1]: 8 | TEAE Mild (Grade 1): No. patients (%) [1]: 1 (25.0%) | TEAE Moderate (Grade 2): No. events [1]: 3 | TEAE Moderate (Grade 2): No. patients (%) [1]: 2 (50.0%) | TEAE Severe (Grade 3): No. events [1]: 3 | TEAE Severe (Grade 3): No. patients (%) [1]: 1 (25.0%) | TEAE Mild (Grade 1): No. events (all doses, N = 17, CTCAE v5.0): 24 | TEAE Mild (Grade 1): No. patients (%) (all doses, N = 17, CTCAE v5.0): 7 (41.2%) | TEAE Moderate (Grade 2): No. patients (%) (all doses, N = 17, CTCAE v5.0): 8 (47.1%) | TEAE Severe (Grade 3): No. patients (%) (all doses, N = 17, CTCAE v5.0): 1 (5.9%) | FG001 related TEAEs: No. events (all doses, N=17): 0 | FG001 related TEAEs: No. patients (%) (all doses, N=17): 0 (0%) | SAEs: No. events (all doses, N=17): 0 | SAEs: No. patients (%) (all doses, N=17): 0 (0%) | TEAE ALT increased: No. events (all doses, N=17): 1 | TEAE ALT increased: No. subjects (%) (all doses, N=17): 1 (5.9%) | TEAE AST increased: No. events (all doses, N=17): 3 | TEAE AST increased: No. subjects (%) (all doses, N=17): 3 (17.6%) | TEAE Blood ALP increased: No. events (all doses, N=17): 1 | TEAE Blood ALP increased: No. subjects (%) (all doses, N=17): 1 (5.9%) | TEAE Blood bilirubin increased: No. events (all doses, N=17): 7 | TEAE Blood bilirubin increased: No. subjects (%) (all doses, N=17): 7 (41.2%) | TEAE Blood creatinine increased: No. events (all doses, N=17): 2 | TEAE Blood creatinine increased: No. subjects (%) (all doses, N=17): 2 (11.8%) | TEAE Dysgeusia: No. events (all doses, N=17): 1 | TEAE GGT increased: No. events (all doses, N=17): 1 | TEAE GGT increased: No. subjects (%) (all doses, N=17): 1 (5.9%) | TEAE Hypalbuminaemia: No. events (all doses, N=17): 10 | TEAE Hypalbuminaemia: No. subjects (%) (all doses, N=17): 10 (58.8%) | TEAE Hyperglycaemia: No. events (all doses, N=17): 2 | TEAE Hyperglycaemia: No. subjects (%) (all doses, N=17): 2 (11.8%) | TEAE Hypertension: No. events (all doses, N=17): 2 | TEAE Hypertension: No. subjects (%) (all doses, N=17): 2 (11.8%) | TEAE Hyponatraemia: No. events (all doses, N=17): 1 | TEAE Hyponatraemia: No. subjects (%) (all doses, N=17): 1 (5.9%) | TEAE Hypotension: No. events (all doses, N=17): 1 | TEAE Hypotension: No. subjects (%) (all doses, N=17): 1 (5.9%) | TEAE Hypothermia: No. events (all doses, N=17): 3 | TEAE Pneumonia: No. events (all doses, N=17): 1 | TEAE Pneumonia: No. subjects (%) (all doses, N=17): 1 (5.9%) | TEAE SOC General disorders and administration site conditions: No. events (all doses, N=17): 3 | TEAE SOC Infections and infestations: No. events (all doses, N=17): 1 | TEAE SOC Investigations: No. events (all doses, N=17): 15 | TEAE SOC Investigations: No. subjects (%) (all doses, N=17): 9 (52.9%) | TEAE SOC Metabolism and nutrition disorders: No. events (all doses, N=17): 13 | TEAE SOC Metabolism and nutrition disorders: No. subjects (%) (all doses, N=17): 10 (58.8%) | TEAE SOC Nervous system disorders: No. events (all doses, N=17): 1 | TEAE SOC Vascular disorders: No. events (all doses, N=17): 3 | TEAE SOC Vascular disorders: No. subjects (%) (all doses, N=17): 3 (17.6%) | TEAE: No. events (all doses, N=17): 36 | TEAE: No. patients (%) (all doses, N=17): 16 (94.1%) | TEAE Alanine aminotransferase increased, Grade 3: No. events (all doses, Table S1): 1 | TEAE Alkaline phosphatase increased, Grade 1: No. events (all doses, Table S1): 1 | TEAE Aspartate aminotransferase increased, Grade 1: No. events (all doses, Table S1): 2 | TEAE Aspartate aminotransferase increased, Grade 3: No. events (all doses, Table S1): 1 | TEAE Blood bilirubin increased, Grade 1: No. events (all doses, Table S1): 5 | TEAE Blood bilirubin increased, Grade 2: No. events (all doses, Table S1): 2 | TEAE Creatinine increased, Grade 1: No. events (all doses, Table S1): 2 | TEAE Dysgeusia (salty taste), Grade 1: No. events (all doses, Table S1): 1 | TEAE GGT increased, Grade 3: No. events (all doses, Table S1): 1 | TEAE Hyperglycemia, Grade 1: No. events (all doses, Table S1): 2 | TEAE Hypertension, Grade 2: No. events (all doses, Table S1): 2 | TEAE Hypoalbuminemia, Grade 1: No. events (all doses, Table S1): 6 | TEAE Hypoalbuminemia, Grade 2: No. events (all doses, Table S1): 4 | TEAE Hyponatremia, Grade 1: No. events (all doses, Table S1): 1 | TEAE Hypotension, Grade 1: No. events (all doses, Table S1): 1 | TEAE Hypothermia, Grade 1: No. events (all doses, Table S1): 3 | TEAE Pneumonia, Grade 2: No. events (all doses, Table S1): 1 | Findings related to FG001 administration at physical examinations (in vivo): No abnormal findings
